No end group written: not given here.
Molecular target: the molecule itself
Assay: non-reducing SDS/PAGE; overnight dialysis at 4°C against non-reducing (DTT-free) HK buffer, non-reducing sample buffer, 65°C 5 min, Coomassie stain; disulphide-linked dimer

B1: GFP–STIM1K+LC (GFP–STIM1K with a leucine and cysteine insertion after residue 666), oxidized dimer (domain or fragment, human, UniProt Q13586-1 662-685, looked up)
chain: GEETDLCSSPGRKKFPLKIFKKPLKK
modifications: not fully specified; inserted cysteine oxidized (84% dimerization)
notes: STIM1, human, residues 662–685 with Leu and Cys inserted after Asp666; The methods describe only the plasmid of the +LC–P675A–P682A form (pMS781); also called GFP–STIM1K dimer; oxidized GFP–STIM1K+LC; source: E. coli BL21 (DE3), purified, dialysed overnight against DTT-free HK buffer; not shown: GFP, N-terminal, kept
  stoichiometry N: 2

B2: GFP–STIM1K+LC–P675A–P682A, oxidized dimer (domain or fragment, human, UniProt Q13586-1 662-685, looked up)
chain: {GFP}-GEETDLCSSPGRKKFALKIFKKALKK
modifications: also: disulfide-linked dimer via inserted cysteine
notes: STIM1, human, residues 662–685 with Leu and Cys inserted after Asp666, P675A and P682A; also called pMS781; GFP-STIM1K dimer with both prolines mutated; source: E. coli BL21 (DE3), purified, dialysed overnight against DTT-free HK buffer; not shown: GFP, N-terminal, kept
  stoichiometry N: 2

From article PMC3814058 (Bioscience Reports, 2013)
